# Reference: PMC6469964
# Like-named read-outs stand apart in the source and are kept apart here.
# Assays:
# 6xHis-HNRNPK [1] = biological target: T1, 6xHis-HNRNPK (mouse, UniProt P61979 1-463); experiment: EMSA
# 6xHis-HNRNPK [2] = biological target: T1, 6xHis-HNRNPK; experiment: EMSA; remark: listed apart in the source
Binder,binding result (6xHis-HNRNPK [1]),binding result (6xHis-HNRNPK [2])
mutant Repeat B RNA (ssRNA) RNA: GCAACAGCAACUGCAACAGCAACAGCAACUGCAACUGCAACAGCAACUGCAACA,no binding,
WT Repeat B RNA (ssRNA) RNA: GCCCCAGCCCCUGCCCCAGCCCCAGCCCCUGCCCCUGCCCCAGCCCCUGCCCCA,,binds
